Data taken from the supplement of paper PMC9112550, “Optimization of the antimicrobial peptide Bac7 by deep mutational scanning” (BMC Biology, 2022).

System: Escherichia coli TOP10
Test: shrunken log2 fold change of peptide-encoding DNA abundance (4.5 h post-induction vs induction); higher = less antimicrobial activity (less host growth inhibition)
Conditions: time post-induction: 4.5 h; library: site-saturation at positions 5, 18, 19, 20
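Note: peptides expressed intracellularly from a pBAD plasmid library in pooled LB shake-flask culture, induced with 0.3% L-arabinose, DNA abundance read by NGS, three biological replicates, DESeq2 with apeglm shrinkage.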

Row | Sequence | shrunken log2 fold change
1 | RRIRERPPRLPRPRPRPDNLPRP | -0.00994
2 | RRIRCRPPRLPRPRPRPYVQPRP | -0.113
3 | RRIRGRPPRLPRPRPRPRRAPRP | 0.963
4 | RRIRFRPPRLPRPRPRPCPEPRP | -0.2
5 | RRIRCRPPRLPRPRPRPLIEPRP | -0.0593
6 | RRIRFRPPRLPRPRPRPIDDPRP | -0.548
7 | RRIRRRPPRLPRPRPRPKSWPRP | 0.249
8 | RRIRWRPPRLPRPRPRPWMCPRP | -0.174
9 | RRIRWRPPRLPRPRPRPWPPPRP | 0.546
10 | RRIRCRPPRLPRPRPRPVMWPRP | 0.131
11 | RRIRMRPPRLPRPRPRPKFGPRP | -0.0062
12 | RRIRFRPPRLPRPRPRPTQMPRP | 0.149
13 | RRIRDRPPRLPRPRPRPKTVPRP | 0.271
14 | RRIRDRPPRLPRPRPRPDWMPRP | 0.0771
15 | RRIRFRPPRLPRPRPRPHINPRP | -0.634
16 | RRIRRRPPRLPRPRPRPEGTPRP | 0.28
17 | RRIRERPPRLPRPRPRPNMVPRP | -0.61
18 | RRIRNRPPRLPRPRPRPFKRPRP | 0.09
19 | RRIRARPPRLPRPRPRPCNMPRP | -0.253
20 | RRIRSRPPRLPRPRPRPEGGPRP | 0.325
21 | RRIRWRPPRLPRPRPRPWVTPRP | -0.37
22 | RRIRFRPPRLPRPRPRPFSHPRP | -1.36
23 | RRIRARPPRLPRPRPRPCHCPRP | 0.164
24 | RRIRKRPPRLPRPRPRPCRTPRP | 0.0438
25 | RRIRKRPPRLPRPRPRPLVMPRP | 0.432

Row | Sequence | shrunken log2 fold change
26 | RRIRDRPPRLPRPRPRPYNEPRP | -0.0252
27 | RRIRMRPPRLPRPRPRPLMIPRP | -0.159
28 | RRIRYRPPRLPRPRPRPCLSPRP | -1.24
29 | RRIRFRPPRLPRPRPRPREWPRP | 0.112
30 | RRIRYRPPRLPRPRPRPKDKPRP | -0.536
31 | RRIRDRPPRLPRPRPRPGSKPRP | -0.126
32 | RRIRMRPPRLPRPRPRPKTPPRP | 3.35
33 | RRIRHRPPRLPRPRPRPEVPPRP | -0.00339
34 | RRIRFRPPRLPRPRPRPDAAPRP | 0.681
35 | RRIRKRPPRLPRPRPRPSHRPRP | -0.0303
36 | RRIRHRPPRLPRPRPRPDWPPRP | 0.114
37 | RRIRCRPPRLPRPRPRPNKFPRP | -0.472
38 | RRIRHRPPRLPRPRPRPGTQPRP | -0.128
39 | RRIRVRPPRLPRPRPRPDVLPRP | 0.00338
40 | RRIRQRPPRLPRPRPRPNSYPRP | -0.225
41 | RRIRIRPPRLPRPRPRPRLDPRP | 0.1
42 | RRIRARPPRLPRPRPRPHEQPRP | 0.257
43 | RRIRWRPPRLPRPRPRPPHRPRP | 0.321
44 | RRIRARPPRLPRPRPRPHHKPRP | -0.347
45 | RRIRMRPPRLPRPRPRPFQTPRP | 0.00707
46 | RRIRYRPPRLPRPRPRPEMNPRP | -0.0274
47 | RRIRERPPRLPRPRPRPRSFPRP | -0.331
48 | RRIRMRPPRLPRPRPRPQHLPRP | -0.344
49 | RRIRDRPPRLPRPRPRPRPVPRP | 0.466
50 | RRIRWRPPRLPRPRPRPWGGPRP | 0.556

Row | Sequence | shrunken log2 fold change
51 | RRIRARPPRLPRPRPRPVHCPRP | 0.0301
52 | RRIRKRPPRLPRPRPRPWLWPRP | 0.00796
53 | RRIRTRPPRLPRPRPRPTKKPRP | 0.0786
54 | RRIRVRPPRLPRPRPRPGNTPRP | -0.113
55 | RRIRVRPPRLPRPRPRPQQKPRP | -0.027
56 | RRIRGRPPRLPRPRPRPKPCPRP | 0.422
57 | RRIRNRPPRLPRPRPRPVMGPRP | 0.147
58 | RRIRPRPPRLPRPRPRPYPHPRP | -0.237
59 | RRIRARPPRLPRPRPRPTCKPRP | 0.0463
60 | RRIRSRPPRLPRPRPRPFLHPRP | -0.174
61 | RRIRFRPPRLPRPRPRPRTNPRP | -0.179
62 | RRIRNRPPRLPRPRPRPWWTPRP | -0.129
63 | RRIRHRPPRLPRPRPRPIPGPRP | -0.158
64 | RRIRFRPPRLPRPRPRPICTPRP | -0.218
65 | RRIRNRPPRLPRPRPRPHCLPRP | -0.466
66 | RRIRRRPPRLPRPRPRPKGTPRP | 0.25
67 | RRIRHRPPRLPRPRPRPSITPRP | -0.569
68 | RRIRQRPPRLPRPRPRPWGAPRP | 0.351
69 | RRIRIRPPRLPRPRPRPIAAPRP | 0.0481
70 | RRIRHRPPRLPRPRPRPKSIPRP | -0.136
71 | RRIRFRPPRLPRPRPRPASRPRP | 0.128
72 | RRIRNRPPRLPRPRPRPLMMPRP | -0.193
73 | RRIRGRPPRLPRPRPRPGAAPRP | 1.43
74 | RRIRDRPPRLPRPRPRPNDTPRP | 0.0133
75 | RRIRTRPPRLPRPRPRPATCPRP | 2.77

Row | Sequence | shrunken log2 fold change
76 | RRIRSRPPRLPRPRPRPYDVPRP | 0.0192
77 | RRIRVRPPRLPRPRPRPEWPPRP | 0.225
78 | RRIRMRPPRLPRPRPRPWIWPRP | 0.106
79 | RRIRSRPPRLPRPRPRPLMRPRP | 0.948
80 | RRIRTRPPRLPRPRPRPTDVPRP | 0.284
81 | RRIRCRPPRLPRPRPRPSYRPRP | -0.242
82 | RRIRTRPPRLPRPRPRPVHFPRP | 0.218
83 | RRIRKRPPRLPRPRPRPKAVPRP | -0.11
84 | RRIRVRPPRLPRPRPRPYRTPRP | -0.19
85 | RRIRDRPPRLPRPRPRPMKHPRP | -0.245
86 | RRIRHRPPRLPRPRPRPEIIPRP | -0.496
87 | RRIRARPPRLPRPRPRPFTYPRP | -0.0975
88 | RRIRTRPPRLPRPRPRPWGEPRP | 0.183
89 | RRIRPRPPRLPRPRPRPKPMPRP | 0.218
90 | RRIRERPPRLPRPRPRPGVNPRP | 0.0154
91 | RRIRSRPPRLPRPRPRPGIQPRP | 0.0642
92 | RRIRFRPPRLPRPRPRPAMKPRP | -0.345
93 | RRIRPRPPRLPRPRPRPLHYPRP | -0.11
94 | RRIRWRPPRLPRPRPRPNSEPRP | -0.071
95 | RRIRMRPPRLPRPRPRPKSLPRP | 0.171
96 | RRIRRRPPRLPRPRPRPRPDPRP | 0.855
97 | RRIRRRPPRLPRPRPRPCAWPRP | 0.0864
98 | RRIRNRPPRLPRPRPRPTKDPRP | -0.197
99 | RRIRDRPPRLPRPRPRPPYLPRP | -0.0541
100 | RRIRFRPPRLPRPRPRPIMAPRP | -0.0564

Row | Sequence | shrunken log2 fold change
101 | RRIRKRPPRLPRPRPRPDYFPRP | 0.0333
102 | RRIRHRPPRLPRPRPRPAHIPRP | -0.0784
103 | RRIRGRPPRLPRPRPRPMKSPRP | 0.206
104 | RRIRNRPPRLPRPRPRPFWEPRP | -0.372
105 | RRIRWRPPRLPRPRPRPYYHPRP | -0.306
106 | RRIRIRPPRLPRPRPRPGIMPRP | -0.137
107 | RRIRWRPPRLPRPRPRPNCVPRP | 0.0603
108 | RRIRDRPPRLPRPRPRPYFIPRP | -0.324
109 | RRIRVRPPRLPRPRPRPVDPPRP | 0.22
110 | RRIRERPPRLPRPRPRPQQCPRP | -0.0909
111 | RRIRLRPPRLPRPRPRPYMWPRP | -1.05
112 | RRIRLRPPRLPRPRPRPDNWPRP | -0.0493
113 | RRIRMRPPRLPRPRPRPHIIPRP | -0.991
114 | RRIRCRPPRLPRPRPRPVLKPRP | 0.181
115 | RRIRIRPPRLPRPRPRPVDPPRP | 0.106
116 | RRIRIRPPRLPRPRPRPRGGPRP | 0.217
117 | RRIRARPPRLPRPRPRPRQLPRP | 0.449
118 | RRIRFRPPRLPRPRPRPIRVPRP | 0.0245
119 | RRIRGRPPRLPRPRPRPFKFPRP | -0.11
120 | RRIRMRPPRLPRPRPRPIYAPRP | 1.86
121 | RRIRERPPRLPRPRPRPGEPPRP | -0.107
122 | RRIRARPPRLPRPRPRPNTGPRP | -0.0394
123 | RRIRQRPPRLPRPRPRPLRKPRP | 0.356
124 | RRIRGRPPRLPRPRPRPFRQPRP | 0.124
125 | RRIRHRPPRLPRPRPRPSWIPRP | -0.171
